Where a chain is given by its changes, count along the chain named.
T1: monkey (Macaca fascicularis) HER3 on CHO-fasHER3 cells (monkey (Macaca fascicularis), UniProt P21860 20-643 (human entry))
T1 construct: CHO-S cells transfected with fasHER3
T1 chain: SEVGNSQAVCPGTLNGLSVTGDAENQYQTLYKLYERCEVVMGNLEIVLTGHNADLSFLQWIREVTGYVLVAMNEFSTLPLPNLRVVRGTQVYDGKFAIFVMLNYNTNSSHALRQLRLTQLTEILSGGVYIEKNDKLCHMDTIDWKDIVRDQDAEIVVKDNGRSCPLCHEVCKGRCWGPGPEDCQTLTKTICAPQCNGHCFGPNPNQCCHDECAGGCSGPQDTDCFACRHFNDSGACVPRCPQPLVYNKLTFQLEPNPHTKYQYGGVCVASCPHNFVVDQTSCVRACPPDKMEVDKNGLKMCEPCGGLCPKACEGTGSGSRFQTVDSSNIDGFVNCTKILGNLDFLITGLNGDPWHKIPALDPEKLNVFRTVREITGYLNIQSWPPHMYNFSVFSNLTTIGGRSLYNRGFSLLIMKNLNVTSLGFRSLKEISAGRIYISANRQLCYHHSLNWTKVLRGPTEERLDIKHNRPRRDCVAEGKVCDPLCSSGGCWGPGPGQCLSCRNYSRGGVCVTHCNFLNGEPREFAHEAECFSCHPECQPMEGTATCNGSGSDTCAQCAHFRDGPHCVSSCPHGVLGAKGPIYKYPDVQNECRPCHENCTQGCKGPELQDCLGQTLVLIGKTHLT

B1: anti-HER3/MET bispecific antibody 3G6-2F11 (bispecific antibody, V domains shown)
VH 1: QVQLVQSGPVLVKPTETLTLTCTVSGFSLSNIRMGVSWIRQPPGKALEWLAHIFSNDDKSYSTSLKSRLTISKDTSKSQVVLTMTNVDPVDTATYYCTRMRYSGGPFDYWGQGTLVTVSS
VH 2: EVQLVESGPGLVKPSETLSLTCTVSGGSISSNYWSWIRQPPGKGLEWIGYIYHSGSTNYNPSLKSRVTISVDTSKNQFSLKLSSVTAADTAVYFCARGPVSIFGVVKYIDLWGRGTLVTVSS
VL: not shown
B2: anti-HER3/MET bispecific antibody 3G6-8E2 (bispecific antibody, V domains shown)
VH 1: B1 VH 1
VH 2: QVQLVQSGPALVKPTQTLTLTCTFSGFSLYTSGVAVAWIRQPPGKALEWLALIYWDDDKWYTPSLKTRLSITKDTSKNQVVLTMTNMDPVDTATYYCAHRGSFNWNYGYFDYWGQGTLVTVSS
VL: not shown
B3: anti-HER3/MET bispecific antibody 3E1-8D9 (bispecific antibody, V domains shown)
VH 1: B1 VH 1 with Q1E, V12A, T63P, S67N, N86T, V87M, V90M, R101K
VH 2: QVQLQESGPGLVKPSETLSLTCTVSGGSISGHYWSWIRQSPGKGLEWIGYITYSGSTNYNPSLKSRVTISVDTSKNQFSLKLSSVTAADTAVYYCGTIAVAGRVYYYGVDVWGRGTTVTVSS
VL: not shown
B4: anti-HER3/MET bispecific antibody 3E1-8H10 (bispecific antibody, V domains shown)
VH 1: B1 VH 1 with Q1E, V12A, T63P, S67N, N86T, V87M, V90M, R101K
VH 2: QVQLQQWGAGLLKPSETLSLTCAVYGGSFSGYYWTWIRQPPGKGLEWIGESNHGGSTNFNPSLKSRVTISVDTSKNHFSLKLSPVTAADTAVYYCTRGGTIFGLKDAFDIWGQGTMVTVSS
VL: not shown
B5: anti-HER3/MET bispecific antibody 3E1-8E2 (bispecific antibody, V domains shown)
VH 1: B1 VH 1 with Q1E, V12A, T63P, S67N, N86T, V87M, V90M, R101K
VH 2: B2 VH 2
VL: not shown
B6: anti-HER3/MET bispecific antibody 1B2-8E2 (bispecific antibody, V domains shown)
VH 1: B1 VH 1 with G26T, I32A, T63P, S78T, V87M, T98S, T114S
VH 2: B2 VH 2
VL: not shown
B7: anti-HER3/MET bispecific antibody 1B2-2F11 (bispecific antibody, V domains shown)
VH 1: B1 VH 1 with G26T, I32A, T63P, S78T, V87M, T98S, T114S
VH 2: B1 VH 2
VL: not shown
B8: anti-HER3/MET bispecific antibody 3E1-2F11 (bispecific antibody, V domains shown)
VH 1: B1 VH 1 with Q1E, V12A, T63P, S67N, N86T, V87M, V90M, R101K
VH 2: B1 VH 2
VL: not shown
B9: anti-HER3/MET bispecific antibody 1B2-8D9 (bispecific antibody, V domains shown)
VH 1: B1 VH 1 with G26T, I32A, T63P, S78T, V87M, T98S, T114S
VH 2: B3 VH 2
VL: not shown
B10: anti-HER3/MET bispecific antibody 1C5-8E2 (bispecific antibody, V domains shown)
VH 1: QVQLVESGGGVVQPGKSLRLSCAASGFTFSRSGMHWVRQAPGKGLEWVALISFDGSNKYYADSVKGRFTISRDNSKNTLNLQMNSLRAEDTAVYYCAKGGFGVVIYDAFDIWGHGTMVTVSS
VH 2: B2 VH 2
VL: not shown
B11: anti-HER3/MET bispecific antibody 1C5-8D9 (bispecific antibody, V domains shown)
VH 1: B10 VH 1
VH 2: B3 VH 2
VL: not shown

Molecular target: T1, monkey (Macaca fascicularis) HER3 on …
Experiment: flow cytometry, transfected CHO cells
Method: (§1) Specifically, CHO-hHER3 cells, CHO-fasHER3 cells, NIH3T3-hMET cells or NIH3T3-fasMET cells were transferred to a 96-well plate at a density of 5×10⁴ cells/well respectively. The antibodies were added to the 96-well plate, and incubated at 4° C. for 30 min.

Binder | Positive Cells
B1 | 56%
B2 | 58.4%
B3 | 58.6%
B4 | 66%
B5 | 63.9%
B6 | 61.4%
B7 | 56.3%
B8 | 50.3%
B9 | 55.5%
B10 | 55.1%
B11 | 60.4%

Molecular target: T2, human HER3 on CHO-hHER3 cells (human, UniProt P21860 20-643)
T2 construct: CHO-S cells transfected with hHER3
Experiment: flow cytometry, transfected CHO cells
Method: as §1

Binder | Positive Cells
B1 | 47.3%
B2 | 55.2%
B3 | 59%
B4 | 72.1%
B5 | 58.4%
B6 | 56.3%
B7 | 51.4%
B8 | 56.4%
B9 | 54%
B10 | 56.9%
B11 | 64.8%

Molecular target: T3, human MET on NIH3T3-hMET cells (human, UniProt P08581 25-1390)
T3 construct: NIH3T3 cells transfected with a plasmid expressing hMET
T3 sequence (P08581 25-1390 limits assumed): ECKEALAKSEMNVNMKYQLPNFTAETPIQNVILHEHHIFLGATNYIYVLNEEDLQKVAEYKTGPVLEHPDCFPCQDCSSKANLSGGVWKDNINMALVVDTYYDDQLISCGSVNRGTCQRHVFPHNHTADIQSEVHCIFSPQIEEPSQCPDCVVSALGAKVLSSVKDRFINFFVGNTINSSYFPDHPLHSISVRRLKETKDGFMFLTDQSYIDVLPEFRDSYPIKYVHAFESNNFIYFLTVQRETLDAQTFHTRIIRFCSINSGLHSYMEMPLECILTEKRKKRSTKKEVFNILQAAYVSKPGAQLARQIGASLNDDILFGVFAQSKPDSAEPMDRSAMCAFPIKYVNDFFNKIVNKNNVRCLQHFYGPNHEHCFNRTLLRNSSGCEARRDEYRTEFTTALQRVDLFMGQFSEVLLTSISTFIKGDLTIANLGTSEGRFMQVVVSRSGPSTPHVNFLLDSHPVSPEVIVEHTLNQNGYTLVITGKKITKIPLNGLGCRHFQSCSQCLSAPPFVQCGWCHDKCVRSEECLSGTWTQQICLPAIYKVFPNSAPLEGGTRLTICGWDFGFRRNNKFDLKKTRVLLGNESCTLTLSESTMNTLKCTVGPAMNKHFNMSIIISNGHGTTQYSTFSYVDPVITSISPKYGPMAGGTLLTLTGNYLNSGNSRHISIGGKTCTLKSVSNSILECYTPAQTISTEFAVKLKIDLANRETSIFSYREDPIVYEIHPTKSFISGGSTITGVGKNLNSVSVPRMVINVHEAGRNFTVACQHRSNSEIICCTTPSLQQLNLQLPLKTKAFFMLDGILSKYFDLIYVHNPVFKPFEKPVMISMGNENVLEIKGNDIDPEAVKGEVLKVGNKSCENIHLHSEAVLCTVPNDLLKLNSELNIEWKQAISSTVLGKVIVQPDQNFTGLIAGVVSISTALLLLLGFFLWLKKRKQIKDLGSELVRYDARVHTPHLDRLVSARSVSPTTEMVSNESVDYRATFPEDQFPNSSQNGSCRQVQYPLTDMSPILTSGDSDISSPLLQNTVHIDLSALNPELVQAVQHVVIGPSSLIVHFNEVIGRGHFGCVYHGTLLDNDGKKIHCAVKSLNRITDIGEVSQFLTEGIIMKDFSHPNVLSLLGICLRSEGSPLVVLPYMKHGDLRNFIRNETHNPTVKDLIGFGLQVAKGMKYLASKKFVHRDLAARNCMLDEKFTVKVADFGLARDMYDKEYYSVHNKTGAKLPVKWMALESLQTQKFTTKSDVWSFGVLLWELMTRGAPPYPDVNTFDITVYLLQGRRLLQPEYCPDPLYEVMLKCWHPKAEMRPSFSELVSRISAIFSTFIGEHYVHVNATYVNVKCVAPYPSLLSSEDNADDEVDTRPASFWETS
Experiment: flow cytometry, transfected NIH3T3 cells
Method: as §1

Binder | Positive Cells
B1 | 99.8%
B2 | 99.6%
B3 | 99.9%
B4 | 99.7%
B5 | 99.5%
B6 | 99.6%
B7 | 99.8%
B8 | 99.8%
B9 | 99.8%
B10 | 99.6%
B11 | 99.8%

Molecular target: T4, monkey MET on NIH3T3-fasMET cells (monkey, UniProt A0M8R7 25-1381)
T4 construct: NIH3T3 cells transfected with a plasmid expressing fasMET
T4 sequence (A0M8R7 25-1381 S170N/I621T limits assumed): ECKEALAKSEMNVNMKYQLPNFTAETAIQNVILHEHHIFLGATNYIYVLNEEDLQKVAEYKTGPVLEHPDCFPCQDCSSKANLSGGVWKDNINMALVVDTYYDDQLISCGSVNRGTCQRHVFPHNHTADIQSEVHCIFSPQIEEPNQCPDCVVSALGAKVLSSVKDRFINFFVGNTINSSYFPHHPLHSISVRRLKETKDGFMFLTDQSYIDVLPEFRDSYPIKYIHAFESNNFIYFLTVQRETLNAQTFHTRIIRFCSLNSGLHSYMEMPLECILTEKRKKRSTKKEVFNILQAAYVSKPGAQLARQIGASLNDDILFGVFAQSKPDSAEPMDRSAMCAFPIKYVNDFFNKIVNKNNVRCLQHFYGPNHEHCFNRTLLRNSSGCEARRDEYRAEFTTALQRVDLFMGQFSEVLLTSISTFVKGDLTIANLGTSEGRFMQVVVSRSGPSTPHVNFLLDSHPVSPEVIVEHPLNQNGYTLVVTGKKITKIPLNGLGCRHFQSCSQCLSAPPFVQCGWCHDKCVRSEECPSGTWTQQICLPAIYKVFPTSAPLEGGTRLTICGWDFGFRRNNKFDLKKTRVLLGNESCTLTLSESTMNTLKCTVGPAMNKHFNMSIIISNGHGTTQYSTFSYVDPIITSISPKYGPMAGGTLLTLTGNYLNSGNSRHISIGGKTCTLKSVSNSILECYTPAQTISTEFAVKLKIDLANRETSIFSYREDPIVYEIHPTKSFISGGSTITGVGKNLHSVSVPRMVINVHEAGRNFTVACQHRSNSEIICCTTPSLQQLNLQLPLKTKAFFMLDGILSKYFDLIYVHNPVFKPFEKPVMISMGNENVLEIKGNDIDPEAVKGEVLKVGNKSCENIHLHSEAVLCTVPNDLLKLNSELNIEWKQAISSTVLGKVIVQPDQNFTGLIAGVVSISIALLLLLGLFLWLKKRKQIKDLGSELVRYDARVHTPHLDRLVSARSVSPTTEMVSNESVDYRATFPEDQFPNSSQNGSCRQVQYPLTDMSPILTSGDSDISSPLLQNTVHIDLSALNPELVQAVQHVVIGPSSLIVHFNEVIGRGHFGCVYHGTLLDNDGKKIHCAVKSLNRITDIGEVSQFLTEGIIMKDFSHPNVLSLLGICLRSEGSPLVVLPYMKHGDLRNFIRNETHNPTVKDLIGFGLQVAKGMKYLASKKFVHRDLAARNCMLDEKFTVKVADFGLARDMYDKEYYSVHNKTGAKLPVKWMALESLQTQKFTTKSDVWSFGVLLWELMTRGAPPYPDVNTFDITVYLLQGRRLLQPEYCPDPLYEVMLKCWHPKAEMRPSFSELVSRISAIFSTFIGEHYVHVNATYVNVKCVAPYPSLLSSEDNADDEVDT
Experiment: flow cytometry, transfected NIH3T3 cells
Method: as §1

Binder | Positive Cells
B1 | 72.9%
B2 | 51.6%
B3 | 70.2%
B4 | 54.6%
B5 | 54.8%
B6 | 54.3%
B7 | 66.4%
B8 | 87.3%
B9 | 64.9%
B10 | 55.1%
B11 | 65.1%

Molecular target: T5, His-tagged monkey HER3 protein (fasHER3, Sino Biological, Inc., Cat #: 90043-K08H) (monkey)
T5 construct: Bought protein
Experiment: SPR, Ab captured on Protein A, antigen 400 nM
Method: (§2) Purified antibodies were captured on the Protein A chip (Series S Sensor Chip Protein A) for the detection. 2 μg/mL antibodies were loaded at 10 μL/min to bind to hHER3, fasHER3, hMET or fasMET (400 and 0 nM). The flow rate was 30 μL/min, the binding and dissociation time were set to 180 s and 400 s, respectively. The chip was regenerated after the last injection of each titration with a glycine solution ([…]) at 30 μL/min for 30 seconds.

Binder | Kd | koff | kon
B1 | 90.2 nM | 0.0103 s⁻¹ | 114000 M⁻¹ s⁻¹
B2 | 67.2 nM | – | –
B3 | 33.1 nM | 0.00322 s⁻¹ | 97300 M⁻¹ s⁻¹
B4 | 32.2 nM | 0.00318 s⁻¹ | 98700 M⁻¹ s⁻¹
B5 | 29 nM | 0.00329 s⁻¹ | 113000 M⁻¹ s⁻¹
B6 | 31.5 nM | 0.0025 s⁻¹ | 79300 M⁻¹ s⁻¹
B7 | 38.9 nM | 0.00255 s⁻¹ | 65600 M⁻¹ s⁻¹
B8 | 33.7 nM | 0.00325 s⁻¹ | 96400 M⁻¹ s⁻¹
B9 | 38.9 nM | 0.00261 s⁻¹ | 67100 M⁻¹ s⁻¹
B10 | 92.5 nM | 0.000844 s⁻¹ | 9120 M⁻¹ s⁻¹
B11 | 97 nM | 0.000671 s⁻¹ | 6920 M⁻¹ s⁻¹

Molecular target: T6, His-tagged human MET (hMET, Sino Biological, Inc., Cat #: 10692-H08H) (human, UniProt P08581 25-932)
T6 construct: Bought protein; not shown: His tag
T6 sequence (P08581 25-932 limits assumed): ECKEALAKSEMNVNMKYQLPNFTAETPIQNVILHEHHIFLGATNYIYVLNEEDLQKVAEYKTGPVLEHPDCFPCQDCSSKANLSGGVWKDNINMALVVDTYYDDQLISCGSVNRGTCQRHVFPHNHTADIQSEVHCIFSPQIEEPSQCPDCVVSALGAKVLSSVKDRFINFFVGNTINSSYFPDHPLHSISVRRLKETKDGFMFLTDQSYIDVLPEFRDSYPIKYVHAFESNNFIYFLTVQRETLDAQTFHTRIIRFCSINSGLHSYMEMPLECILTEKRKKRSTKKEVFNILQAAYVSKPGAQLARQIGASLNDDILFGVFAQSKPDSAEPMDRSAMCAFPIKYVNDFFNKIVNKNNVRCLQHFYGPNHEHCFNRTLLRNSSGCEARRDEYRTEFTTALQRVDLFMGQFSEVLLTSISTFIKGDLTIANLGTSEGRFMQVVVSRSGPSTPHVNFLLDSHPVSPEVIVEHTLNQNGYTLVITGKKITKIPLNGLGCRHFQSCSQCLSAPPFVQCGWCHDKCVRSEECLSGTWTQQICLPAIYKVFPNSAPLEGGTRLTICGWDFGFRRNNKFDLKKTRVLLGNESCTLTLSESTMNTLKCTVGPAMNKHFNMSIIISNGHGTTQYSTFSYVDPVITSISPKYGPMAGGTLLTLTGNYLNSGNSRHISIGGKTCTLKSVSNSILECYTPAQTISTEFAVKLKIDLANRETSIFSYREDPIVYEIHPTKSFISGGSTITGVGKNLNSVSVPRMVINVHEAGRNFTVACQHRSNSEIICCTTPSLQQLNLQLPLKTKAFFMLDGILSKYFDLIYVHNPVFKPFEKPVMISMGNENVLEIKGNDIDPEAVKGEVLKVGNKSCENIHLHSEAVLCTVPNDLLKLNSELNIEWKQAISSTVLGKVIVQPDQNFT
Experiment: SPR, Ab captured on Protein A, antigen 400 nM
Method: as §2

Binder | Kd | koff | kon
B1 | 50.7 nM | 0.00256 s⁻¹ | 50500 M⁻¹ s⁻¹
B2 | 14.8 nM | 0.00113 s⁻¹ | –
B3 | 21.8 nM | 0.00051 s⁻¹ | 23400 M⁻¹ s⁻¹
B4 | 12.7 nM | 0.00516 s⁻¹ | 408000 M⁻¹ s⁻¹
B5 | 16.9 nM | 0.0012 s⁻¹ | 71100 M⁻¹ s⁻¹
B6 | 14 nM | 0.000998 s⁻¹ | 71400 M⁻¹ s⁻¹
B7 | 40.4 nM | 0.00255 s⁻¹ | 63200 M⁻¹ s⁻¹
B8 | 43.1 nM | 0.00285 s⁻¹ | 66100 M⁻¹ s⁻¹
B9 | 35.7 nM | 0.000973 s⁻¹ | 27200 M⁻¹ s⁻¹
B10 | 18 nM | 0.00122 s⁻¹ | 68000 M⁻¹ s⁻¹
B11 | 22.5 nM | 0.000531 s⁻¹ | 23600 M⁻¹ s⁻¹

Molecular target: T7, His-tagged human HER3 protein (hHER3, ACRO Biosystems Inc., Cat #: ER3-H5223) (human, UniProt P21860 20-643)
T7 construct: Bought protein; also called hHER3-His; not shown: His tag
Experiment: SPR, Ab captured on Protein A, antigen 400 nM
Method: as §2

Binder | Kd | koff | kon
B1 | 47.4 nM | 0.0106 s⁻¹ | 224000 M⁻¹ s⁻¹
B2 | 38.9 nM | 0.0101 s⁻¹ | –
B3 | 15 nM | 0.00341 s⁻¹ | 227000 M⁻¹ s⁻¹
B4 | 14.5 nM | 0.00332 s⁻¹ | 229000 M⁻¹ s⁻¹
B5 | 13.2 nM | 0.0035 s⁻¹ | 266000 M⁻¹ s⁻¹
B6 | 13.8 nM | 0.00252 s⁻¹ | 183000 M⁻¹ s⁻¹
B7 | 16.1 nM | 0.00253 s⁻¹ | 157000 M⁻¹ s⁻¹
B8 | 14.8 nM | 0.00342 s⁻¹ | 231000 M⁻¹ s⁻¹
B9 | 16.7 nM | 0.00262 s⁻¹ | 157000 M⁻¹ s⁻¹
B10 | 32.7 nM | 0.000777 s⁻¹ | 23700 M⁻¹ s⁻¹
B11 | 31.1 nM | 0.000605 s⁻¹ | 19400 M⁻¹ s⁻¹

From US20260250418A1 (BIOCYTOGEN PHARMACEUTICALS BEIJING, published 2026)
